In PMC12509902, “PRMT1/PRMT5-Mediated Differential Arginine Methylation of CRIP1 Promotes the Recurrence of Small Cell Lung Cancer after Chemotherapy” (International Journal of Biological Sciences, 2025):

Molecular target: T1, 3×Flag-PRMT5 (UniProt O14744 1-637)
T1 construct: Protein arginine methyltransferase 5 (PRMT5), from plasmid pCDH-CMV-3×Flag-PRMT5
Experiment: pull-down; GST pull-down as described in ref. 23; GST-tagged protein expressed in BL21; Flag-tagged protein purified from HEK-293T by Flag affinity gel and 3× FLAG peptide elution; the paper calls the binding direct
Details: both partners purified

T1 sequence (O14744 whole entry): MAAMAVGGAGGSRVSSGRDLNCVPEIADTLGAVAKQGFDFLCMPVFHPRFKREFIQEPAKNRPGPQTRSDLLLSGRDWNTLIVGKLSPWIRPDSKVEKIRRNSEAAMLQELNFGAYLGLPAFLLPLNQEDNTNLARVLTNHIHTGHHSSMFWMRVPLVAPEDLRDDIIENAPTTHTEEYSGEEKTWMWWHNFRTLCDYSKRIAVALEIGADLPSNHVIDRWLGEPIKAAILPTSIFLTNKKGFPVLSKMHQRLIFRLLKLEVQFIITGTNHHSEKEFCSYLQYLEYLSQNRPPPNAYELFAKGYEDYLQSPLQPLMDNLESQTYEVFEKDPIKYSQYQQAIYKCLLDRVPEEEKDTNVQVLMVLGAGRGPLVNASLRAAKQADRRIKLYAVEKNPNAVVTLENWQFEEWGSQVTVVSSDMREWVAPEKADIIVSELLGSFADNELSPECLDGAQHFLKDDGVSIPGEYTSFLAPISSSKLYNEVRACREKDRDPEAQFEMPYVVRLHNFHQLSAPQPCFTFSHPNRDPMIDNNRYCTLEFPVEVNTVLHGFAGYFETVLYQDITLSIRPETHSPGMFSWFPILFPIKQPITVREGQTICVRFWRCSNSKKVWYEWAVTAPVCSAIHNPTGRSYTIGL

binding result: binds
B1: GST-CRIP1, full-length (FL), wild type (natural protein, UniProt P50238 1-77, looked up)
chain: MPKCPKCNKEVYFAERVTSLGKDWHRPCLKCEKCGKTLTSGGHAEHEGKPYCNHPCYAAMFGPKGFGRGGAESHTFK
notes: Cysteine-rich intestinal protein 1 (CRIP1), full length, in pGEX-6P-1; also called GST-CRIP1 WT; source: E. coli BL21, induced with 1 mM IPTG
